Assay results taken from PMC7613515, “Reading and erasing of the phosphonium analogue of trimethyllysine by epigenetic proteins” (Communications Chemistry, 2022).
Like-named read-outs stand apart in the source and are kept apart here. Square brackets hold non-standard residues; d marks the D form. Ends that are not written are not given here. Lys(Me3) = C[N+](C)(C)CCCC[C@H](N)C(=O)O

Tests used:
[1] = cited from earlier work
Excerpt: Some JmjC KDMs can also catalyse N-methyl arginine demethylation and with appropriately sized N^ε-substitutions some can catalyse forma ...

[2] = target: T1, BPTFPHD (L2583–N2751) (Homo sapiens, UniProt Q12830); conditions: reported, ITC, H3 1-10, cited from earlier work
T1 construct: BPTFPHD (L2583–N2751); made in house; host or cells: E. coli

[3] = test system: KDM4E; conditions: reported, shorter H3_7-14K9me3 substrate; cited from earlier work
Excerpt: Reactions were monitored using MALDI-TOF mass spectrometry (Fig. 5b–d). […] Some JmjC KDMs can also catalyse N-methyl arginine demethylation and with appropriately sized N^ε-substitutions some can catalyse forma ...

[4] = target: T2, TAF3PHD (R857–K924) (Mus musculus, UniProt Q5HZG4); assay: ITC, association of histone H3 peptides with TAF3PHD; type: binding, human; conditions: 25 °C, H3 1-10 peptide (350–600 µM) into reader (25–40 µM), Tris (50 mM), pH 7.5, from 3 to 5 experiments
T2 construct: TAF3PHD (R857–K924); made in house; host or cells: E. coli
T2 sequence (Q5HZG4 857-924 limits assumed): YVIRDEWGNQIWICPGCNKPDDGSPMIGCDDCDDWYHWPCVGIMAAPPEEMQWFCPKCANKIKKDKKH
Excerpt: (§1) We investigated the thermodynamics of association of the H3KP4me3 peptide with five representative human reader domains containing either a PHD zinc finger or TTD, i.e. KDM5APHD3 (JARID1A-PHD3, residues M1489–V1641)[10], TAF3PHD (R857–K924)[22], BPTFPHD (L2583–N2751)[23], SGF29TTD (R115–K293)[24] and KDM4ATTD (JMJD2A, Q897-P1011)[25], selected on the basis of their preference for binding Ν^ε-trimethyllysine over other (non)methylation marks (Kme0 < Kme1 < Kme2 < Kme3), and their domain and aromatic cage diversity. The recombinant readers were produced in E. coli following reported procedures. Isothermal titration calorimetric (ITC) analyses were used to determine the dissociation constant (Kd), the Gibbs free energy of binding (ΔG°), the enthalpy of binding (ΔH°), and the entropy of binding (ΔS°). […] (Table 1, Fig. 2, Supplementary Fig. 1).
(§2) The following purified reader domains: TAF3PHD (R857-K924), KDM5APHD3 (JARID1A, M1489-V1641), BPTFPHD (L2583-N2751), KDM4ATTD (JMJD2A, Q897-P1011) and SGF29TTD (R115-K293) were prepared as reported[10],[22]–[26]. The histone lysine demethylase were produced and purified to high purity via reported procedures KDM3A (JMJD1A, T515-S1317)[41], KDM4AJmjC[39] (JMJD2A, M1-L359), KDM4EJmjC (JMJD2E, M1–Q337)[34] and KDM7B[40] (PHF8, M37-N483 [NP_001171]). KDM5DJmjC was produced using an N-terminal hexa-His tagged KDM4D (KDM4DM1-L358) DNA construct, transformed into BL21(DE3) competent cells for recombinant protein production. Colonies were used to inoculate of LB media (50 mL) containing kanamycin (50 µg·mL^−1) and chloramphenicol (34 µg·mL^−1), which was placed in a 37 °C shaker overnight. The starter culture (10 mL) was used to inoculate TB media (6 × 1 L) containing kanamycin (50 µg·mL^−1) in 2 L baffled shaker flasks. After reaching an of OD600 of ~0.8, the temperature was reduced to 18 °C; at OD600 ~0.9 the cells were induced by the IPTG (0.5 mM) addition. After shaking overnight, the culture was centrifuged (5000 rpm, 10 mins), the media was decanted, and the cell pellet was suspended in Lysis Buffer [HEPES (50 mM), NaCl (500 mM), imidazole (20 mM), glycerol (5%) and TCEP (0.5 mM) in water (pH 7.4)]. The suspension was lysed by passaging through a high-pressure cell breaker (Avestin – EmulsiFlex-C5) for three rounds. The lysate was cleared by centrifugation (60 minutes, 36,000 × g, 4 °C), then loaded onto a Ni NTA gravity column. […]
(§3) ITC studies followed a reported procedure. […] Histone peptide titrations were performed with the same reader batches. Solutions of the reader in buffer (25–40 µM) and of the histone H3 peptide (350–600 µM) in buffer were prepared. […] Heats of dilution for histone peptides determined in control experiments were subtracted from the titration binding data. […]

[5] = target: T3, SGF29TTD (R115–K293) (Homo sapiens, UniProt Q96ES7); assay: ITC, association of histone H3 peptides with SGF29TTD; type: binding; conditions: 25 °C, H3 1-10 peptide (350–600 µM) into reader (25–40 µM), pH 7.5, from 3 to 5 experiments
T3 construct: SGF29TTD (R115–K293); made in house; host or cells: E. coli
T3 sequence (Q96ES7 115-293): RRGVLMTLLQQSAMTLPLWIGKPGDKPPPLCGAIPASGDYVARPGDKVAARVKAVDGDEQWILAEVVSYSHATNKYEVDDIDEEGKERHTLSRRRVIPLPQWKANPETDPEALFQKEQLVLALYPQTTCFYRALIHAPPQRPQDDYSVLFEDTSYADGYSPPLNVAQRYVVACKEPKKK
Excerpt: as §1
(§4) The following purified reader domains: TAF3PHD (R857-K924), KDM5APHD3 (JARID1A, M1489-V1641), BPTFPHD (L2583-N2751), KDM4ATTD (JMJD2A, Q897-P1011) and SGF29TTD (R115-K293) were prepared as reported[10],[22]–[26]. The histone lysine demethylase were produced and purified to high purity via reported procedures KDM3A (JMJD1A, T515-S1317)[41], KDM4AJmjC[39] (JMJD2A, M1-L359), KDM4EJmjC (JMJD2E, M1–Q337)[34] and KDM7B[40] (PHF8, M37-N483 [NP_001171]). KDM5DJmjC was produced using an N-terminal hexa-His tagged KDM4D (KDM4DM1-L358) DNA construct, transformed into BL21(DE3) competent cells for recombinant protein production. Colonies were used to inoculate of LB media (50 mL) containing kanamycin (50 µg·mL^−1) and chloramphenicol (34 µg·mL^−1), which was placed in a 37 °C shaker overnight. The starter culture (10 mL) was used to inoculate TB media (6 × 1 L) containing kanamycin (50 µg·mL^−1) in 2 L baffled shaker flasks. After reaching an of OD600 of ~0.8, the temperature was reduced to 18 °C; at OD600 ~0.9 the cells were induced by the IPTG (0.5 mM) addition. After shaking overnight, the culture was centrifuged (5000 rpm, 10 mins), the media was decanted, and the cell pellet was suspended in Lysis Buffer [HEPES (50 mM), NaCl (500 mM), imidazole (20 mM), glycerol (5%) and TCEP (0.5 mM) in water (pH 7.4)]. The suspension was lysed by passaging through a high-pressure cell breaker (Avestin – EmulsiFlex-C5) for three rounds. The lysate was cleared by centrifugation (60 minutes, 36,000 × g, 4 °C), then loaded onto a Ni NTA gravity column. After extensive rinsing of the Ni-NTA gravity column with lysis buffer, the His-tagged protein was eluted in lysis buffer containing 300 mM imidazole. The eluted protein was concentrated and subjected to gel filtration chromatography using an AKTA Xpress system, an S200 16/600 gel filtration column, and GF buffer [HEPES (50 mM), NaCl (150 mM), glycerol (5%) and TCEP (0.5 mM) in water (pH 7.4)]. The protein identity was verified by LC-MS (ESI-TOF) observing a mass of 43759.7 Da, in accord with the predicted mass of 43751.6 Da.
as §3, with “procedure. The buffer used corresponded to that used in the final protein purification step.” for “procedure.”

[6] = target: T4, KDM5APHD3 (JARID1A-PHD3, residues M1489–V1641) (Homo sapiens, UniProt P29375); assay: ITC, association of histone H3 peptides with KDM5APHD3; type: binding; conditions: 25 °C, H3 1-10 peptide (350–600 µM) into reader (25–40 µM), Tris (50 mM), NaCl (20 mM), pH 7.5, from 3 to 5 experiments
T4 construct: KDM5APHD3 (JARID1A-PHD3, residues M1489–V1641); made in house; host or cells: E. coli
T4 sequence (P29375 1489-1641): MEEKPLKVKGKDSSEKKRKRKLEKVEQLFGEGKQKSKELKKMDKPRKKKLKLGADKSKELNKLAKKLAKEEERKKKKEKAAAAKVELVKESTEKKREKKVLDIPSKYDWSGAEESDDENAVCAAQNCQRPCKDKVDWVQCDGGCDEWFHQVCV
Excerpt: as §1, §2, §3

[7] = target: T5, KDM4ATTD (JMJD2A, Q897-P1011) (Homo sapiens, UniProt O75164); assay: ITC, association of histone H3 peptides with KDM4ATTD; type: binding; conditions: 25 °C, H3 1-10 peptide (350–600 µM) into reader (25–40 µM), Tris (50 mM), pH 7.5, from 3 to 5 experiments
T5 construct: KDM4ATTD (JMJD2A, Q897-P1011); made in house; host or cells: E. coli
T5 sequence (O75164 897-1011): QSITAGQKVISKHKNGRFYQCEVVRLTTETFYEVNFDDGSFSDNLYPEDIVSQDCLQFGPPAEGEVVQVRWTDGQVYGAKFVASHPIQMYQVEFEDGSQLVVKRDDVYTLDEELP
Excerpt: as §1, §4
ITC studies followed a reported procedure. The buffer used corresponded to that used in the final protein purification step. Briefly, TAF3PHD and KDM4ATTD: [Tris (50 mM) in water (pH 7.5)]; KDM5APHD3 and BTPFPHD: [Tris (50 mM), NaCl (20 mM) in water (pH 7.5)]; [Tris (25 mM), NaCl (50 mM), 1,4-dithiothreitol (1.0 mM) in water (pH 7.5)]. Experiments were conducted using ITC200 automated (GE Healthcare Life Sciences, USA) instrument at 25 °C. Histone peptide titrations were performed with the same reader batches. Solutions of the reader in buffer (25–40 µM) and of the histone H3 peptide (350–600 µM) in buffer were prepared. The prepared solutions were plated into a 96-well plate and inserted into the instrument for analysis. Experiments were performed according to manufacturer’s default settings: Plate pre-rinse syringe clean. A total of 19 injections were performed; each experiment was repeated 3–5 times. Heats of dilution for histone peptides determined in control experiments were subtracted from the titration binding data. […]

[8] = target: T5, KDM4ATTD (JMJD2A, Q897-P1011); conditions: reported, ITC, H3 1-10, cited from earlier work
Excerpt: (§5) N.D. not determined; N.M: not measured. Modification KDM5A PHD3 TAF3PHD BPTFPHD SGF29TT ...

[9] = target: T2, TAF3PHD (R857–K924); conditions: reported, ITC, H3 1-10, cited from earlier work
Excerpt: as §5

[10] = target: T3, SGF29TTD (R115–K293); conditions: reported, ITC, H3 1-10, cited from earlier work
Excerpt: as §5

[11] = target: T4, KDM5APHD3 (JARID1A-PHD3, residues M1489–V1641); conditions: reported, ITC, H3 1-10, cited from earlier work
Excerpt: page 30: Supplementary Table 5 Overview of reported ITC binding values of chromatin binding modules with H3 peptides (K d in µM) with various lysine modification. […] N.D. not determined; N.M: not measured. Modification KDM5A PHD3 TAF3PHD BPTFPHD SGF29TT ...

For `C[P+](C)(C)C.[I-]` [^+Pme4, reference compound], the volume [1] is listed as 115 Å^3.
For `C[N+](C)(C)C` [^+Nme4, reference compound], the volume [1] is given as 105 Å^3.
In the case of “K4Cme3: H3 1-10 peptide with K4Cme3 modification, Hintzen et al.”, the Kd ([2]; ref Hintzen et al. (SI ref 11)) is given as 3800 nM.
For “H3_7-14K9me3: shorter H3_7-14K9me3 substrate (AR[Lys(Me3)]STGGK; UniProt P68431 8-15, looked up, fragment)”, the Km [3] is listed as 21.3 µM and the kcat [3] is listed as 0.0767 s⁻¹.
In the case of `C[C@H](N)C(=O)N[C@@H](CCCNC(=N)N)C(=O)N[C@H](C(=O)N[C@@H](CCCC[N+](C)(C)C)C(=O)N[C@@H](CCC(N)=O)C(=O)N[C@H](C(=O)N[C@@H](C)C(=O)N[C@@H](CCCNC(=N)N)C(=O)N[C@@H](CCCCN)C(=O)N[C@@H](CO)C(N)=O)[C@@H](C)O)[C@@H](C)O` [H3K4me3, reference compound], the Kd [4] is reported as 110 nM, the Kd [5] is reported as 3200 nM and the Kd [6] is reported as 520 nM. The Kd [7] was 3500 nM.
In the case of “K4Cme3: H3 1-10 peptide with K4Cme3 modification, Hintzen et al. (ARTCQTARKS; Cys4 S-alkylated with 2-(trimethylammonio)ethyl = trimethylthialysine, a cysteine-derived trimethyllysine analogue (identity inferred from the cited Hintzen et al. work))”, the Kd ([8]; ref Hintzen et al. (SI ref 11)) is given as 3100 nM, the Kd ([9]; ref Hintzen et al. (SI ref 11)) is given as 42 nM and the Kd ([10]; ref Hintzen et al. (SI ref 11)) is given as 6100 nM. The Kd ([11]; ref Hintzen et al. (SI ref 11)) was 150 nM.
In the case of “K4G: K4me3 in H3K4me3 substituted for glycine (ARTGQTARKS)”, the Kd ([9]; ref Kamps et al. (SI ref 9)) is listed as 36000 nM and the Kd ([11]; ref Kamps et al. (SI ref 9)) is listed as 88000 nM.
For “L-K4me3: H3 1-10 peptide with L-K4me3 modification, Belle et al.”, the Kd ([2]; ref Belle et al. (SI ref 8)) is listed as 440 nM, the Kd ([8]; ref Belle et al. (SI ref 8)) is listed as 1100 nM and the Kd ([9]; ref Belle et al. (SI ref 8)) is listed as 82 nM. For the same molecule, the Kd ([10]; ref Belle et al. (SI ref 8)) was 1700 nM and the Kd ([11]; ref Belle et al. (SI ref 8)) was 110 nM.
